Among the data in publication PMC10901774 (2024) are IC50 and Kd values, retold here.

Where no end group is shown, it is not given here. [ ]: non-standard residue; d: D form.

The labels stand for the following.
B5: recombinant CHIP (C-terminus of Hsc70-interacting protein) TPR domain (domain or fragment)
chain: GASPSAQELKEQGNRLFVGRKYPEAAACYGRAITRNPLVAVYYTNRALCYLKMQQHEQALADCRRALELDGQSVKAHFFLGQCQLEMESYDEAIANLQRAYSLAKEQRLNFGDDIPSALRIAKKKRWNSIEERR
modifications: biotinylated in the TR-FRET assay

For assay [1], the target named is B5. The experiment in a line: FP.
In assay [2] the target is p53-derived model peptide, FAM-labelled (L-form) (UniProt P04637, 5(6)-carboxyfluorescein (FAM)). The experiment in a line: FRET.
Sequence of p53-derived model peptide, FAM-labelled (L-form) (P04637 whole entry, looked up, tested part not stated): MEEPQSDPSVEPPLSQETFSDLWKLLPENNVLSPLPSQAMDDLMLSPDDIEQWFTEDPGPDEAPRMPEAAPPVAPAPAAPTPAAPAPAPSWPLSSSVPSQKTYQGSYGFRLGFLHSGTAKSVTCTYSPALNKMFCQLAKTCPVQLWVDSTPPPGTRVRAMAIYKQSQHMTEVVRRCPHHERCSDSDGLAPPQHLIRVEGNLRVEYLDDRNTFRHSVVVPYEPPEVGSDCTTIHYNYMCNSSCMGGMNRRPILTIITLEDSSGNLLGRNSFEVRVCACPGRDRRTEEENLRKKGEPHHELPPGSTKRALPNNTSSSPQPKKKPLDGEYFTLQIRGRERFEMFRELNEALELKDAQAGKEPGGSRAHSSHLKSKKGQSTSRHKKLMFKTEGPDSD
Assay [3] concerns the target p53-derived model peptide, FAM-labelled (D-form) (UniProt P04637, all residues D-amino acids; 5(6)-carboxyfluorescein (FAM)). Kind of assay: FRET.
The target in assay [4] is FAM-Hsp70 peptide (peptide model of the heat shock protein 70 C-terminus), L-form (UniProt P0DMV8, 5(6)-carboxyfluorescein (FAM)). The experiment in a line: FRET.
Sequence of FAM-Hsp70 peptide (peptide model of the heat shock protein 70 C-terminus), L-form (P0DMV8 whole entry, looked up, tested part not stated): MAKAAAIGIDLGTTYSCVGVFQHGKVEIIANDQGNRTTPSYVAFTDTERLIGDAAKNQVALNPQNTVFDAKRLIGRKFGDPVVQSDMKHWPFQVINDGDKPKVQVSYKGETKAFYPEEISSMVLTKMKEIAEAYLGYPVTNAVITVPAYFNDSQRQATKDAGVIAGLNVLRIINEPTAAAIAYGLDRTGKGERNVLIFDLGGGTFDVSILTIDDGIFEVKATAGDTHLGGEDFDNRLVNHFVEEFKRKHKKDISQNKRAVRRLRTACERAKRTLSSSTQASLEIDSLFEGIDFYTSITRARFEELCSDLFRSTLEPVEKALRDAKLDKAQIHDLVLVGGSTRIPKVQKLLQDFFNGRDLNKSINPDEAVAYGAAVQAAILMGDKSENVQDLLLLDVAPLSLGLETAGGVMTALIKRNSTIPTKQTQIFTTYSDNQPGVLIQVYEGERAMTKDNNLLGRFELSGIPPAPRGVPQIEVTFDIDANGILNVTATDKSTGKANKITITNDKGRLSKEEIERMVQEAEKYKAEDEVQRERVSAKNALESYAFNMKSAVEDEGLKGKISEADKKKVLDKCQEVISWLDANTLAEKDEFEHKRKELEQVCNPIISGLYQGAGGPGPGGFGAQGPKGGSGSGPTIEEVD
Assay [5] deals with FAM-Hsp70 peptide (peptide model of the heat shock protein 70 C-terminus), D-form (UniProt P0DMV8, all residues D-amino acids; 5(6)-carboxyfluorescein (FAM)). Kind of assay: FRET.
Sequence of FAM-Hsp70 peptide (peptide model of the heat shock protein 70 C-terminus), D-form (P0DMV8 whole entry, looked up, tested part not stated): as above

Sequence of p53-derived model peptide, FAM-labelled (D-form) (P04637 whole entry, looked up, tested part not stated): as the sequence (P04637 whole entry, looked up, tested part not stated) above

For the molecule [dP][dW][dW][dE][dC][dL][dS][dQ][dA][dD][dD][dC][dD][dF][dR] (staple (positions not given here)) [D-H202], the IC50 in assay [1] was 1.23 µM.

B1: recombinant MDM2 (mouse double minute 2 homolog) (domain or fragment)
chain: SQIPASEQETLVRPKPLLLKLLKSVGAQKDTYTMKEVLFYLGQYIMTKRLYDEKQQHIVYCSNDLLGDLFGVPSFSVKEHRKIYTMIYRNLVVVN
modifications: biotinylated in the TR-FRET assay
The molecule B1 showed a Kd in assay [2] of 0.01 µM.

B2: synthetic D-MDM2 (domain or fragment)
chain: SQIPASEQETLVRPKPLLLKLLKSVGAQKDTYTMKEVLFYLGQYIMTKRLYDEKQQHIVYCSNDLLGDLFGVPSFSVKEHRKIYTMIYRNLVVVN
modifications: all residues D-amino acids; biotin at the N-terminus through a PEG12 linker
In turn, B2 registered a Kd in assay [3] of 0.013 µM.

B3: synthetic L-CHIP (TPR domain) (domain or fragment)
chain: SPSAQELKEQGNRLFVGRKYPEAAACYGRAITRNPLVAVYYTNRALCYLKMQQHEQALADCRRALELDGQSVKAHFFLGQCQLEMESYDEAIANLQRAYSLAKEQRLNFGDDIPSALRIAKKKRWNSIEERR
modifications: biotin at the N-terminus through a PEG12 linker
For B3, the dissociation constant Kd in assay [4] stood at 3.8 µM.

B4: synthetic D-CHIP (TPR domain) (domain or fragment)
chain: SPSAQELKEQGNRLFVGRKYPEAAACYGRAITRNPLVAVYYTNRALCYLKMQQHEQALADCRRALELDGQSVKAHFFLGQCQLEMESYDEAIANLQRAYSLAKEQRLNFGDDIPSALRIAKKKRWNSIEERR
modifications: all residues D-amino acids; biotin at the N-terminus through a PEG12 linker
In turn, B4 gave a Kd in assay [5] of 3.5 µM.
With B5, in assay [4], binding was put at a Kd of 4 µM.
